What was measured:
[1] = target: mSPE-7 IgE from the NS1 hybridoma (mouse anti-dinitrophenyl IgE) (mouse); details: scale: % of the unpurified Sigma SPE-7 IgE's activity
[2] = target: mSPE-7 IgE from the NS1 hybridoma (mouse anti-dinitrophenyl IgE) (mouse); test: SEC-MALLS; peak B of the Superdex 200 Increase fractionation of NS1 mSPE-7 IgE, run again on Superdex 200 Increase with inline light scattering and refractometer
[3] = target: Sigma mSPE-7 IgE (commercial mouse monoclonal anti-dinitrophenyl IgE, SPE-7, from Sigma) (mouse); details: scale: % of the activity of the unpurified Sigma SPE-7 IgE

Substance “mSPE-7 IgE from the NS1 hybridoma (mouse anti-dinitrophenyl IgE) (antibody)” has a degranulation of RBL-SX38 cells (β-hexosaminidase release) without antigen by peak B (IgE trimer) of NS1 mSPE-7 IgE, against unpurified Sigma SPE-7 IgE [1] of 55 and a stoichiometry N [2] of 3.
Substance “Sigma mSPE-7 IgE (commercial mouse monoclonal anti-dinitrophenyl IgE, SPE-7, from Sigma) (antibody)” has a degranulation of RBL-SX38 cells (β-hexosaminidase release) without antigen by component B of Sigma SPE-7 IgE, against unpurified Sigma SPE-7 IgE [3] of 65.

Source: paper PMC5557881
